From US5932697A, “Synthetic antifreeze peptide” (Virginia Tech Intellectual Properties, Inc., priority 1991, dated 1999)

Tested on: JM109 (DE3)
Experiment: Studies of cell viability in strains expressing WF8R fusion proteins
Assay type: cell-based, E. coli
Conditions: JM109 (DE3) [pX28] or [pX284], intracellular expression as P10 fusion; applicants' conclusion from cell viability studies
From the text: The pX28 and pX284 were transformed into JM109 (DE3). The proteins produced in either the JM109 (DE3) [pX28] or in the JM109 (DE3) [pX284] after induction by IPTG in mid- or late-logarithmic growth phase, have been analyzed by sodium dodecyl sulfate (SDS)--polyacrylamide gel electrophoresis (SDS-PAGE). […] Studies of cell viability in these strains have shown that both strains are adversely affected with respect to growth and stability of the plasmid (these effects were more pronounced in the pX28 harboring strain). […] To avert this problem the applicants decided to protect the fusion protein from intracellular degradation, as well as to protect the cells from the toxicity of WF8R, by adding to the fusion a C-terminal end derived from E. coli β-galactosidase.

B1: WF8R: synthetic 98 amino acid antifreeze peptide with eight eleven-amino-acid repeats, modeled on winter flounder AFP, expressed in E. coli (protein)
chain: MSTASDAAAAAAATAATAAAAAAATAATAAAAAAATAATAAAAAAATAATAAAAAAATAATAAAAAAATAATAAKAAALTAANAAAAAAATAAAAARG
  toxicity to the cells (growth and stability of the plasmid adversely affected): toxic to the cells
